The values below come from patent US6730480B1, “Sphingosine kinase enzyme” (Johnson & Johnson Pharmaceutical Research and Development …, priority 1999, dated 2004).

Series [1] has as its system sphingosine kinase activity in HEK293 cells. In words: Transient expression of hSK and TNFα stimulation of sphingosine kinase activity in HEK293 cells. The format is cell-based, human. On the procedure:
(§1) Sphingosine kinase activity was routinely determined using D-erythro-sphingosine and [γ^32P]ATP as substrates, essentially as previously described (Olivera et al., 1998) with some modifications. Briefly, assays were performed by incubating samples at 37° C. for 30 min with sphingosine (100 μM stock dissolved in 5% Triton X-100) and [γ-^32P]ATP (1 mM; 10 μCi/ml) in assay buffer containing 100 mM Tris/HCl (pH 7.4), 10 mM MgCl2 10% (v/v) glycerol, 1 mM dithiothreitol, 1 mM EGTA, 1 mM Na3VO4, 15 mM NaF, 0.5 mM 4-deoxypyridoxine in a total volume of 100 μl. Reactions were terminated and sphingosine-1-phosphate extracted by the addition of 700 μl of chloroform/methanol/HCl (100:200:1. v/v), followed by vigorous mixing, addition of 200 μp of chloroform and 200 μl of 2 M KCl, and phase separation by centrifugation. The labeled S1P in the organic phase was isolated by TLC on Silica Gel 60 with 1-butanol/ethanol/acetic acid/water (8:2:1:2, v/v) and quantitated by phosphorimager (Molecular Dynamics. Sunnyvale, Calif.). One unit (U) of activity is defined as 1pmol of S1P formed per minute.
For mammalian cell expression the hSK cDNA was FLAG epitope tagged at the 3′-end by PFU polymerase PCR with oligonucleotide primers T7 and 5′-[…]-3′ [SEQ ID NO:5]. […] The orientation was determined by restriction analysis and sequencing verified the integrity of the hSK-FLAG cDNA sequence. […]

The subject of series [2] is sphingosine kinase activity in HUVEC. In words: TNFα stimulation of sphingosine kinase activity in HUVEC extracts. Format: cell-based, human. Conditions: TNFα treated HUVEC (untreated HUVEC 78). On the procedure:
as §1
Human umbilical vein endothelial cells (HUVEC) were isolated as previously described (Wall et al., 1978) and cultured on gelatin-coated culture flasks in medium M199 with Earle's salts supplemented with 20% fetal calf serum, 25 μg/ml endothelial growth supplement (Collaborative Research) and 25 μg/ml heparin. […]

Substrate in series [3]: CCCCCCCCCCCCC/C=C/[C@@H](O)[C@@H](N)CO
In words: Sphingosine kinase enzyme assay with native SK purified from human placenta. The settings on record: other: Native SK, 37.0 °C. The format is biochemical.

Series [4] is classed as physicochemical, human. Conditions: pH range 4 to 11, 50 mM buffers, 37° C. On the procedure: The effect of pH on the activity of the isolated sphingosine kinases was determined over the pH range 4.0 to 11.0 in 50 mM buffers (sodium acetate, pH 4.0-5.0; Mes, pH 6.0-7.0; Hepes, pH 7.0-8.2; Tris/HCl, pH 8.2-10.0: Caps, pH 10.0-11.0) at 37° C. pH stability was determined by assaying the residual activity after pre-incubation of the enzymes in the same buffers for 5 h at 4° C. Similarly, thermal stabilities were determined by assaying the residual activity after pre-incubation of the enzymes at various temperatures (4-80° C.) for 30 min at pH 7.4 (50 mM Tris/HCl containing 10% glycerol, 0.5 M NaCl and 0.05% Triton X-100). Substrate kinetics were analysed using Michaelis-Menten kinetics with a weighted non-linear regression program (Easterby, 1996). Since sphingosine and its analogues were added to the enzyme assays in mixed micelles with Triton X-100, where they exibit surface dilution kinetics (Buehrer and Bell. 1992), all K, and KC values obtained for these molecules were expressed as mol % of Triton X-100, rather than as bulk solution concentrations. […]
Thermal stabilities of the native and recombinant sphingosine kinases were determined by assaying the residual activity remaining after preincubation of the enzymes at various temperatures (4 to 80° C.) for 30 min at pH 7.4 (50 mM Tris/HCl containing 10% glycerol, 0.5M NaCl and 0.05% Triton X-100). […]

Substrate in series [5]: CCCCCCCCCCCCC/C=C/[C@@H](O)[C@@H](N)CO
In words: Sphingosine kinase enzyme assay with recombinant human SK expressed in E. coli. Format: biochemical. The settings on record: other: Recombinant SK.

The mark [6] stands for this setting: sphingosine supplied as a sphingosine-BSA complex.
Where [7] appears, read: substrate kinetics, bulk solution concentration.

Numbering of substitutions follows the chain as printed.

Turning to TNFα, the “Increase in sphingosine kinase activity after TNFα treatment” value in series [1] (hSK-transfected HEK293 cells, TNFα 1 ng/ml, 10 min) was “approximately 2 fold”. In series [2], the “Total sphingosine kinase activity in cell extract” value was determined as 136 U/mg proteins.

B1: native sphingosine kinase (human placenta SK1) (Homo sapiens) (protein)
chain: MDPAGGPRGVLPRPCRVLVLLNPRGGKGKALQLFRSHVQPLLAEAEISFTLMLTERRNHARELVRSEELGRWDALVVMSGDGLMHEVVNGLMERPDWETAIQKPLCSLPAGSGNALAASLNHYAGYEQVTNEDLLTNCTLLLCRRLLSPMNLLSLHTASGLRLFSVLSLAWGFIADVDLESEKYRRLGEMRFTLGTFLRLAALRTYRGRLAYLPVGRVGSKTPASPVVVQQGPVDAHLVPLEEPVPSHWTVVPDEDFVLVLALLHSHLGSEMFAAPMGRCAAGVMHLFYVRAGVSRAMLLRLFLAMEKGRHMEYECPYLVYVPVVAFRLEPKDGKGVFAVDGELMVSEAVQGQVHPNYFWMVSGCVEPPPSWKPQQMPPPEEPL
notes: from tissue; host or cells: human placenta
The kcat is the maximal rate divided by the concentration of active sites. By Km is commonly meant the substrate concentration at which the rate is half of its maximum. By kcat/Km is commonly meant the second-order rate constant that governs catalysis at low substrate concentration. In the case of B1, the kcat in series [3] (setting [6]) stood at 28 s⁻¹. Further, in series [3] (setting [7]), the Km was 14 ± 2 µM, the kcat came to 50 s⁻¹ and the kcat/Km came out at 3.6e+06 M⁻¹ s⁻¹.

B2: hSK: human sphingosine kinase encoded by the cloned cDNA, SEQ ID NO:2 (protein)
chain: B1 chain with V337M
Consider B2, for which the “Increase in sphingosine kinase activity on transient expression” value in series [1] (HEK293 cells, pcDNA3-hSK, versus untransfected or empty vector) is given as 3200 fold.

B3: native sphingosine kinase: sphingosine kinase SK1 purified to homogeneity from human placenta (protein, UniProt Q9NYA1 1-384, looked up)
Sphingosine kinase 1: B1 chain
As for B3, the “pH of maximum activity” value in series [4] is reported as 7.4.

B4: recombinant sphingosine kinase: hSK expressed as GST fusion in E. coli BL21, thrombin-cleaved and purified (protein)
chain: B1 chain with V337M
For the molecule B4, in series [4], the “pH of maximum activity” value is given as 7.4.

B5: recombinant human sphingosine kinase (Homo sapiens) (protein)
chain: B1 chain
notes: The full length SPHK cDNA cloned into pGEX4T2 was transformed into E. coli BL21; GST (N, cleaved yes); made in house; host or cells: E. coli BL21
For the molecule B5, the turnover number (kcat) in series [5] (setting [6]) was 39 s⁻¹. In addition, in series [5] (setting [7]), the Km is 12 ± 3 µM, the kcat is 85 s⁻¹ and the kcat/Km stood at 7.1e+06 M⁻¹ s⁻¹.
